Experimental data from patent US20150344570A1 (published 2015).

T1: FcgRIIb (FcγRIIb) extracellular domain with C-terminal His tag (human, UniProt P31994 43-217)
T1 construct: extracellular domain; not shown: His tag attached to the C terminus
T1 sequence (looked up): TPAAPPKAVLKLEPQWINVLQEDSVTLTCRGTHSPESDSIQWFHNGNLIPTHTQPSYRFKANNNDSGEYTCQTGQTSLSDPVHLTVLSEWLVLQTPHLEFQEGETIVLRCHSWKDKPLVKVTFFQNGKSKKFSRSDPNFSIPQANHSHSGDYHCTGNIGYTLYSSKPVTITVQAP


Tests used:
Experiment in all cases: SPR (Biacore); KD of H240-Kn061/H240-Hl071/L73-k0 divided by KD of the variant
[1] = molecular target: T2, FcgRIIIa F (FcγRIIIa type F) extracellular domain with C-terminal His tag (human, UniProt P08637 17-208)
T2 construct: extracellular domain; also called FcγRIIIa F; 3aF; not shown: His tag attached to the C terminus
Experimental: (§1) The antibodies were assessed for the binding to each FcgR. […] The resultant value was defined as relative KD, and used as an assessment indicator.
(§2) Analysis of interaction between objective antibody and the FcγR was carried out using Biacore T100 (GE Healthcare), Biacore T200, Biacore A100, and Biacore 4000. HBS-EP+ (GE Healthcare) was used as the running buffer, and the measurement temperature was set to 25° C. Chips produced by immobilizing the antigen peptide by the amine coupling method to a Series S sensor Chip CM5 (GE Healthcare), chips produced by allowing preliminarily biotinylated antigen peptides to interact with and immobilize onto a Series S Sensor Chip SA (certified) (GE Healthcare), chips produced by immobilizing Protein L (ACTIGEN, BioVision) to Series S Sencor Chip CM5 (GE Healthcare), or chips produced by immobilizing Protein A/G (Thermo Scientific) to Series S Sencor Chip CM5 (GE Healthcare) were used. Antibodies of interest were captured onto these chips, and allowed to interact to each FcγR diluted with running buffer.

[2] = molecular target: T3, FcgRIIIa V (FcγRIIIa type V) extracellular domain with C-terminal His tag (human, UniProt P08637 17-208)
T3 construct: extracellular domain; also called FcγRIIIa V; not shown: His tag attached to the C terminus
Experimental: as §1, §2

[3] = molecular target: T1, FcgRIIb (FcγRIIb) extracellular domain …
Experimental: as §1, §2

T3 sequence (P08637 17-208 F176V limits assumed): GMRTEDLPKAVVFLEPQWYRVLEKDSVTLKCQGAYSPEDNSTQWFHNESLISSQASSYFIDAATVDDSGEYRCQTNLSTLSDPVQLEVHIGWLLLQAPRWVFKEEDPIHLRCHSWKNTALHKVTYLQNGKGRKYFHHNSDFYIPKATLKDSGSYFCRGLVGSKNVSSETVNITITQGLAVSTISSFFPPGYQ
T2 sequence (P08637 17-208): as the sequence (P08637 17-208 F176V limits assumed) above, with V160F counted along it

Row | relative KD [1] [ratio] | relative KD [2] [ratio] | relative KD [3] [ratio] | Binder
1 | 1.7 | 1.8 | 0.7 | H240-Kn061/H240-Hl071/L73-k0 variant with Y235M in H240-Kn061 (antibody, human IgG1, kappa, anti-epiregulin heterodimerized IgG1; also called H240-Kn061 Y235M) heavy 1: QDQLVQSGAEVKKPGASVKVSCKASGFNIKDTYIQWVRQAPGQGLEWMGRIDPLRKQTKYREKFEGRVTITADTSTNTAYMELSSLRSEDTAVYYCVRSGREFDYWGQGTLVTVSSASTKGPSVFPLAPSSKSTSGGTAALGCLVKDYFPEPVTVSWNSGALTSGVHTFPAVLQSSGLYSLSSVVTVPSSSLGTQTYICNVNHKPSNTKVDKKVEPKSCDKTHTCPPCPAPEYMWGPSVFLFPPKPKDTLMISRTPEVTCVVVDVSDEDPEVKFNWYVDGVEVHNAKTKPREEQYNATYRVVSVLTVLHQDWLNGKEYKCKVSNKALPAPIEKTISKAKGQPREPQVCTLPPSRDELTKNQVSLWCLVKGFYPSDIAVEWESNGQPENNYKTTPPVLDSDGSFFLYSKLTVDKSRWQQGNVFSCSVMHEALHNHYTQKSLSLSP heavy 2: QDQLVQSGAEVKKPGASVKVSCKASGFNIKDTYIQWVRQAPGQGLEWMGRIDPLRKQTKYREKFEGRVTITADTSTNTAYMELSSLRSEDTAVYYCVRSGREFDYWGQGTLVTVSSASTKGPSVFPLAPSSKSTSGGTAALGCLVKDYFPEPVTVSWNSGALTSGVHTFPAVLQSSGLYSLSSVVTVPSSSLGTQTYICNVNHKPSNTKVDKKVEPKSCDKTHTCPPCPAPELLGGPSVFLFPPKPKDTLMISRTPEVTCVVVDVSHEDPEVKFNWYVDGVEVHNAKTKPREEQYNSTYRVVSVLTVLHQDWLNGKEYKCKVSNDALPMPIEETISKAKGQPREPQVYTLPPSRCELTKNQVSLSCAVKGFYPSDIAVEWESNGQPENNYKTTPPVLDSDGSFFLVSKLTVDKSRWQQGNVFSCSVMHEALHNHYTQKSLSLSP light: DIQMTQSPSSLSASVGDRVTITCRASQDIHKYIAWYQQKPGQAPRLLIQYTSTLQPGVPSRFSGSGSGTDYTFTISSLQPEDIATYYCLQYEQLRTFGGGTKVEIKRTVAAPSVFIFPPSDEQLKSGTASVVCLLNNFYPREAKVQWKVDNALQSGNSQESVTEQDSKDSTYSLSSTLTLSKADYEKHKVYACEVTHQGLSSPVTKSFNRGEC
2 | 0.9 | 1.1 | 0.6 | H240-Kn061/H240-Hl071/L73-k0 variant with Y235T in H240-Kn061 (antibody, human IgG1, kappa, anti-epiregulin heterodimerized IgG1; also called H240-Kn061 Y235T) heavy 1: QDQLVQSGAEVKKPGASVKVSCKASGFNIKDTYIQWVRQAPGQGLEWMGRIDPLRKQTKYREKFEGRVTITADTSTNTAYMELSSLRSEDTAVYYCVRSGREFDYWGQGTLVTVSSASTKGPSVFPLAPSSKSTSGGTAALGCLVKDYFPEPVTVSWNSGALTSGVHTFPAVLQSSGLYSLSSVVTVPSSSLGTQTYICNVNHKPSNTKVDKKVEPKSCDKTHTCPPCPAPEYTWGPSVFLFPPKPKDTLMISRTPEVTCVVVDVSDEDPEVKFNWYVDGVEVHNAKTKPREEQYNATYRVVSVLTVLHQDWLNGKEYKCKVSNKALPAPIEKTISKAKGQPREPQVCTLPPSRDELTKNQVSLWCLVKGFYPSDIAVEWESNGQPENNYKTTPPVLDSDGSFFLYSKLTVDKSRWQQGNVFSCSVMHEALHNHYTQKSLSLSP heavy 2: QDQLVQSGAEVKKPGASVKVSCKASGFNIKDTYIQWVRQAPGQGLEWMGRIDPLRKQTKYREKFEGRVTITADTSTNTAYMELSSLRSEDTAVYYCVRSGREFDYWGQGTLVTVSSASTKGPSVFPLAPSSKSTSGGTAALGCLVKDYFPEPVTVSWNSGALTSGVHTFPAVLQSSGLYSLSSVVTVPSSSLGTQTYICNVNHKPSNTKVDKKVEPKSCDKTHTCPPCPAPELLGGPSVFLFPPKPKDTLMISRTPEVTCVVVDVSHEDPEVKFNWYVDGVEVHNAKTKPREEQYNSTYRVVSVLTVLHQDWLNGKEYKCKVSNDALPMPIEETISKAKGQPREPQVYTLPPSRCELTKNQVSLSCAVKGFYPSDIAVEWESNGQPENNYKTTPPVLDSDGSFFLVSKLTVDKSRWQQGNVFSCSVMHEALHNHYTQKSLSLSP light: DIQMTQSPSSLSASVGDRVTITCRASQDIHKYIAWYQQKPGQAPRLLIQYTSTLQPGVPSRFSGSGSGTDYTFTISSLQPEDIATYYCLQYEQLRTFGGGTKVEIKRTVAAPSVFIFPPSDEQLKSGTASVVCLLNNFYPREAKVQWKVDNALQSGNSQESVTEQDSKDSTYSLSSTLTLSKADYEKHKVYACEVTHQGLSSPVTKSFNRGEC

Second part, the binder before the results:

Row | Binder | relative KD [1] [ratio] | relative KD [2] [ratio] | relative KD [3] [ratio]
3 | H240-Kn061/H240-Hl071/L73-k0 variant with Y235N in H240-Kn061 (antibody, human IgG1, kappa, anti-epiregulin heterodimerized IgG1; also called H240-Kn061 Y235N) heavy 1: QDQLVQSGAEVKKPGASVKVSCKASGFNIKDTYIQWVRQAPGQGLEWMGRIDPLRKQTKYREKFEGRVTITADTSTNTAYMELSSLRSEDTAVYYCVRSGREFDYWGQGTLVTVSSASTKGPSVFPLAPSSKSTSGGTAALGCLVKDYFPEPVTVSWNSGALTSGVHTFPAVLQSSGLYSLSSVVTVPSSSLGTQTYICNVNHKPSNTKVDKKVEPKSCDKTHTCPPCPAPEYNWGPSVFLFPPKPKDTLMISRTPEVTCVVVDVSDEDPEVKFNWYVDGVEVHNAKTKPREEQYNATYRVVSVLTVLHQDWLNGKEYKCKVSNKALPAPIEKTISKAKGQPREPQVCTLPPSRDELTKNQVSLWCLVKGFYPSDIAVEWESNGQPENNYKTTPPVLDSDGSFFLYSKLTVDKSRWQQGNVFSCSVMHEALHNHYTQKSLSLSP heavy 2: QDQLVQSGAEVKKPGASVKVSCKASGFNIKDTYIQWVRQAPGQGLEWMGRIDPLRKQTKYREKFEGRVTITADTSTNTAYMELSSLRSEDTAVYYCVRSGREFDYWGQGTLVTVSSASTKGPSVFPLAPSSKSTSGGTAALGCLVKDYFPEPVTVSWNSGALTSGVHTFPAVLQSSGLYSLSSVVTVPSSSLGTQTYICNVNHKPSNTKVDKKVEPKSCDKTHTCPPCPAPELLGGPSVFLFPPKPKDTLMISRTPEVTCVVVDVSHEDPEVKFNWYVDGVEVHNAKTKPREEQYNSTYRVVSVLTVLHQDWLNGKEYKCKVSNDALPMPIEETISKAKGQPREPQVYTLPPSRCELTKNQVSLSCAVKGFYPSDIAVEWESNGQPENNYKTTPPVLDSDGSFFLVSKLTVDKSRWQQGNVFSCSVMHEALHNHYTQKSLSLSP light: DIQMTQSPSSLSASVGDRVTITCRASQDIHKYIAWYQQKPGQAPRLLIQYTSTLQPGVPSRFSGSGSGTDYTFTISSLQPEDIATYYCLQYEQLRTFGGGTKVEIKRTVAAPSVFIFPPSDEQLKSGTASVVCLLNNFYPREAKVQWKVDNALQSGNSQESVTEQDSKDSTYSLSSTLTLSKADYEKHKVYACEVTHQGLSSPVTKSFNRGEC | 1.3 | 2 | 0.7
4 | H240-Kn061/H240-Hl071/L73-k0 variant with Y235W in H240-Kn061 (antibody, human IgG1, kappa, anti-epiregulin heterodimerized IgG1; also called H240-Kn061 Y235W) heavy 1: QDQLVQSGAEVKKPGASVKVSCKASGFNIKDTYIQWVRQAPGQGLEWMGRIDPLRKQTKYREKFEGRVTITADTSTNTAYMELSSLRSEDTAVYYCVRSGREFDYWGQGTLVTVSSASTKGPSVFPLAPSSKSTSGGTAALGCLVKDYFPEPVTVSWNSGALTSGVHTFPAVLQSSGLYSLSSVVTVPSSSLGTQTYICNVNHKPSNTKVDKKVEPKSCDKTHTCPPCPAPEYWWGPSVFLFPPKPKDTLMISRTPEVTCVVVDVSDEDPEVKFNWYVDGVEVHNAKTKPREEQYNATYRVVSVLTVLHQDWLNGKEYKCKVSNKALPAPIEKTISKAKGQPREPQVCTLPPSRDELTKNQVSLWCLVKGFYPSDIAVEWESNGQPENNYKTTPPVLDSDGSFFLYSKLTVDKSRWQQGNVFSCSVMHEALHNHYTQKSLSLSP heavy 2: QDQLVQSGAEVKKPGASVKVSCKASGFNIKDTYIQWVRQAPGQGLEWMGRIDPLRKQTKYREKFEGRVTITADTSTNTAYMELSSLRSEDTAVYYCVRSGREFDYWGQGTLVTVSSASTKGPSVFPLAPSSKSTSGGTAALGCLVKDYFPEPVTVSWNSGALTSGVHTFPAVLQSSGLYSLSSVVTVPSSSLGTQTYICNVNHKPSNTKVDKKVEPKSCDKTHTCPPCPAPELLGGPSVFLFPPKPKDTLMISRTPEVTCVVVDVSHEDPEVKFNWYVDGVEVHNAKTKPREEQYNSTYRVVSVLTVLHQDWLNGKEYKCKVSNDALPMPIEETISKAKGQPREPQVYTLPPSRCELTKNQVSLSCAVKGFYPSDIAVEWESNGQPENNYKTTPPVLDSDGSFFLVSKLTVDKSRWQQGNVFSCSVMHEALHNHYTQKSLSLSP light: DIQMTQSPSSLSASVGDRVTITCRASQDIHKYIAWYQQKPGQAPRLLIQYTSTLQPGVPSRFSGSGSGTDYTFTISSLQPEDIATYYCLQYEQLRTFGGGTKVEIKRTVAAPSVFIFPPSDEQLKSGTASVVCLLNNFYPREAKVQWKVDNALQSGNSQESVTEQDSKDSTYSLSSTLTLSKADYEKHKVYACEVTHQGLSSPVTKSFNRGEC | 1.1 | 1.3 | 1.3
